In the Immune Epitope Database (IEDB) one finds Kd data, which are given here for 33 sequences.

The target in the assay is HLA-A*33:03. The assay can be described thus: IEDB peptide-MHC binding, purified MHC/competitive/fluorescence; filed as Kd, often an IC50 or EC50 that approximates it; ≥ and ≤ were set here for values at or beyond the usual limits of such assays. Conditions: source organism: Homo sapiens.

In the case of EFVDLYVPR, the Kd came out at 5.11 nM. With ETYLHRIGR the figure was 1.69 nM. Sequence SYIDRLAPR gave a Kd of 1.43 nM. With FVFDRPVHR the figure was 0.95 nM; with NTNDFVTLR, 4.87 nM. With EVYDIAFSR the figure was 1.29 nM; with MTILQTYFR, 3.19 nM; with DVFPGPSFR, 2.18 nM. In the case of NTLQLHRYR it was 3.4 nM.

EFFIPRVGR yielded a Kd of 1.47 nM. In the case of MLYGLIHAR it was 3.45 nM. With EFQDFTVPR the figure was 1.78 nM; with TTTEHRFFR, 1.99 nM; with DIYNHRFHR, 2.4 nM. In the case of EVFEYIIFR it was 4.69 nM; in that of FTWNINHAR, 3.22 nM. EVINDYHFR: the Kd turned out to be 5.33 nM. Sequence ETHFPFAIR registered a Kd of 2.11 nM. With ETMPSPYGR, the Kd was 3.1 nM.

ETYKYLYGR returned a Kd of 1.79 nM. In the case of ETVERIFRR it was 1.77 nM; in that of STARHLYLR, 0.92 nM. In the case of DTYLHRVAR it was 2.19 nM; in that of DAQRLHYYR, 1.37 nM.

With ELFDFLHAR, the Kd was determined as 1.68 nM. With EFFSINAQR the figure was 0.28 nM. With QLYPRNFLR the figure was 3.85 nM; with EVKESPFFR, 3.63 nM.

In turn, ETFPQRHMR displayed a Kd of 3.14 nM. With YVFPKPFNR the figure was 1.43 nM; with YVQRFHYSR, 1.37 nM; with VVAAVRWRR, 3.64 nM. In the case of EVASVWVER it was 11.5 nM.

The Kd is the equilibrium constant for the complex coming apart. Read a low Kd as tighter binding.
